Target: the molecule itself
Assay: SEC; gel filtration of the single purified protein, Superdex 75 16/60 calibrated with molecular weight standards; 50 mM Tris-HCl pH 7.5, 150 mM NaCl

| Protein | stoichiometry N |
| --- | --- |
| human Siah1 without the RING domain (amino acids 91-282) (domain or fragment, UniProt Q8IUQ4 91-282, looked up, human Siah1 without the RING domain, amino acids 91-282 of UniProt Q8IUQ4 (the results say residues 90-282); theoretical mass of a monomer 21,897 Da; The 15N-labelled form was used in the NMR experiment and the unlabelled form in gel filtration; it says only 'a similar protocol to that for PEG3-SCAN'; also called E3 ubiquitin-protein ligase Siah1; 15N-labeled Siah1; source: E. coli, purified by a …) ANSVLFPCKYASSGCEITLPHTEKADHEELCEFRPYSCPCPGASCKWQGSLDAVMPHLMHQHKSITTLQGEDIVFLATDINLPGAVDWVMMQSCFGFHFMLVLEKQEKYDGHQQFFAIVQLIGTRKQAENFAYRLELNGHRRRLTWEATPRSIHEGIATAIMNSDCLVFDTSIAQLFAENGNLGINVTISMC | 2 |
| SCAN domain of human paternally expressed gene 3 protein (PEG3), amino acids 40-130 (domain or fragment, three non-native residues (Gly-His-Met) left at the N-terminus after TEV digestion; SCAN domain of human PEG3, amino acids 40-130 of UniProt Q9GZU2; theoretical mass of the construct 11,434 Da; Homodimer by gel filtration and in the crystal; The gene was synthetic (GenScript), in a modified pET15b vector; also called PEG3-SCAN; PEG3-SCAN domain; source: E. coli Bl21 (DE3) Gold, purified (HisTrap, …)) GHMTDSEFFHQRFRNLIYVEFVGPRKTLIKLRNLCLDWLQPETRTKEEIIELLVLEQYLTIIPEKLKPWVRAKKPENCEKLVTLLENYKEMYQP | 2 |

From paper PMC3720700, “Structure of the SCAN Domain of Human Paternally Expressed Gene 3 Protein” (PLoS ONE, 2013)
